The text below walks through data of patent US20250163186A1 (PHYLAXIS BIOSCIENCE, published 2025).

Test [1] addresses recombinant human anti-hapten dinitrophenol (DNP) IgE (rhIgE) (human, UniProt P01854-1 1-428). Put plainly: cell-based or functional assay.
For test [2], the target named is T1, human IgE (human, UniProt P01854 1-428).
T1 construct: written under the same molecule; also called IgE (Abcam ab65866); soluble IgE
Put plainly: ELISA, plate-coated IgE. Background: ELISA stands for enzyme-linked immunosorbent assay.

Test [3] addresses T1, human IgE. Put plainly: ELISA, plate-coated IgE. The source holds these as a separate data set.
For test [4], the target named is T1, human IgE. Kind of test: ELISA, human IgE coated. The procedure:
(§1) The following day, plates were blocked with 1% BSA in PBS for 30 min-1 hour. […] Afterwards, the plates were PBST washed with the plate washer and detected with Peroxidase AffiniPure Donkey Anti-Human IgG, Fcγ fragment specific secondary detection antibody. Room temperature TMB was added and OD650 was measured using the Emax plate reader. […] Room temperature TMB was added and OD650 was measured using the Emax plate reader. The data was plotted and analyzed using GraphPad Prism analysis software.

For test [5], the target named is T1, human IgE. Kind of test: ELISA, human IgE coated. Here is the method:
as §1
This is another data set of the same source.

Test [6] has as its target human IgG2 (Athensresearch, 16-16-090707-2) (human, UniProt P01859-1 1-326 = IgG part). Put plainly: ELISA, human IgG2 coated.
Test [7] has as its target human IgE pre-complexed to FCER1A on the surface of human mast cells (human, UniProt P01854-1 1-428). Kind of test: flow cytometry on IgE-loaded human mast cells.
In test [8] the target is T2, recombinant human FCER1A-His (ACRO FCA-H5228) (human, UniProt P12319 26-205).
T2 construct: Bought protein; also called FceRIA; IgE receptor
T2 sequence: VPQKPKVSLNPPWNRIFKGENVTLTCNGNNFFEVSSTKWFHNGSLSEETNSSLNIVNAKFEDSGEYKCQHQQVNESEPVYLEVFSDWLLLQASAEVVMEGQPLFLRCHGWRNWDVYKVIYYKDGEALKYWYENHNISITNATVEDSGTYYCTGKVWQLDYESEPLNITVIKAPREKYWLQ
Kind of test: SPR, antibody alone injected over captured FCER1A. Here is the method: (§2) All experiments were done using a Biacore T200 instrument with a CM5 chip at 25° C., Flow Cell (FC) 1 was used as the reference for FC2, and FC3 for FC4.
(§3) Anti-His antibody (1 mg/ml stock) was diluted (1:100 dilution, 0.01 mg/ml diluted concentration) in 10 mM sodium acetate buffer at pH 4.5 and immobilized onto FCs 1 and 2 to a level of ˜14000 RU, using the standard amine coupling chemistry. […] FCER1A (0.4 mg/ml stock concentration) was diluted ([…], ˜0.004 mg/ml diluted concentration) in PBS-P captured onto FC2 to levels of ˜130 RU. PBS-P was used as the capture running buffer. Overnight kinetics were performed for all analytes in the presence of PBS-P. The flow rate of all analyte solutions was maintained at 50 μL/min. The contact and dissociation times used were 120 seconds and 300 seconds, respectively. Glycine pH 1.5 was injected for 20 seconds for surface regeneration. This regeneration condition takes away all captured FCER1A. Therefore, fresh FCER1A was captured in the beginning of each injection cycle. […] All analytes were injected in duplicate. […] Sensorgrams from the overnight kinetics were plotted for further evaluation.
(In SPR one partner is held on a chip, and binding of the other changes the refractive index at the surface.)

The target of test [9] is T3, human IgE pre-complexed to FceRII/CD23 on the surface of RPMI 8866 cells (human, UniProt P01854 1-428; P06734 1-321).
T3 construct: also called IgE:CD23 complexes; IgE in complex with CD23
T3 sequence (P01854 other isoform, or with tags, fused parts or gaps, chain 1 of 2): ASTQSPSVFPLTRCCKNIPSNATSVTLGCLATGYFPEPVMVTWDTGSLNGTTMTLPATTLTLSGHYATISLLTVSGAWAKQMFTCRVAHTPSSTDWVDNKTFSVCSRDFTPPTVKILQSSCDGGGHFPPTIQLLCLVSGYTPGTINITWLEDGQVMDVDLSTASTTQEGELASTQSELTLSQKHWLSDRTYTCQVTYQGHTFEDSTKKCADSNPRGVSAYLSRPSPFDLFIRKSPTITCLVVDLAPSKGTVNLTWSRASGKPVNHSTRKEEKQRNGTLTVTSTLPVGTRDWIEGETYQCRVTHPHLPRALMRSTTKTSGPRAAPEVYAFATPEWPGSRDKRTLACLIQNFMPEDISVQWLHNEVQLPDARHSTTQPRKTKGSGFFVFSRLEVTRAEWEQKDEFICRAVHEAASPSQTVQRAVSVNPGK
T3 sequence (P06734 whole entry, chain 2 of 2): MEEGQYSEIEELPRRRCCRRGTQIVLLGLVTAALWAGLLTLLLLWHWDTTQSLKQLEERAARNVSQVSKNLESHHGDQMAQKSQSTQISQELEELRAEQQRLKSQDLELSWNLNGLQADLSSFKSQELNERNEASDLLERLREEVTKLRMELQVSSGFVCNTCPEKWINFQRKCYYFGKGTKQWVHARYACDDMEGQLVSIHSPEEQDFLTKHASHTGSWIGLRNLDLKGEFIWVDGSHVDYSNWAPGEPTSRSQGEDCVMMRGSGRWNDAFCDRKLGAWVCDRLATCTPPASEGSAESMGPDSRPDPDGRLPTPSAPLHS
Put plainly: flow cytometry, IgE-loaded RPMI 8866 cells. Here is the method:
The washed cells were diluted to 0.8×10⁶ cells/mL. 50 μL of this cell suspension was then transferred to wells of a round-bottom 96-well assay plate (40 k cells/well). 50 μL of titrated test articles (diluted to 1 μM and titrated across 1:3 in FACS buffer) were added to the RPMI 8866 cells which produced a 2-fold dilution of the antibody concentrations from the titration series. The final starting concentration was 500 nM with a total of 11 points in the titration. […] The cells were incubated with secondary detection antibodies for 20 minutes then washed once, resuspended in 60 μL of FACS Buffer, and analyzed on a NovoCyte 3000 flow cytometer (ACEA Biosciences, Inc.).
For orientation: In flow cytometry, cells or beads pass a laser one at a time.

The target of test [10] is T1, human IgE. Kind of test: ELISA, plate-coated IgE, apparent Kd (one site fit). The source says:
The data was plotted and analyzed using GraphPad Prism analysis software.

Test [11] has as its target T1, human IgE. Described as above. The source holds these as a separate data set.
Test [12] has as its target T4, chimeric cynomolgus monkey IgE (cynomolgus monkey (Macaca fascicularis)).
T4 construct: domain: CH1-4 constant domains; Generated in house in place of commercial cynomolgus IgE; also called cyno IgE
Kind of test: ELISA, plate-coated cynomolgus IgE, apparent Kd (one site fit).

Test [13] deals with T1, human IgE. Kind of test: SPR, blocks binding of 5 nM IgE to captured FCER1A. Here is the method: as §2, §3
For test [14], the target named is T1, human IgE. Put plainly: ELISA, blocks binding of 5 nM IgE to coated FCER1A. The procedure:
as §1

In test [15] the target is T1, human IgE. Kind of test: ELISA, blocks binding of 5 nM IgE to coated FCER1A. The procedure: as §1
The source holds these as a separate data set.

Test [16] has as its target T1, human IgE. Put plainly: SPR, blocks binding of 5 nM IgE to captured FCER1A. The procedure:
(§4) All experiments were done using a Biacore T200 instrument with a CM5 chip at 37° C. except immobilization of Protein L, which was done at 25° C.
Sensorgrams from the overnight kinetics were plotted for further evaluation.
The source holds these as a separate data set.

Test [17] has as its target T1, human IgE. Kind of test: ELISA, blocks binding of 5 nM IgE to coated FCER2/CD23. Here is the method:
as §1

In test [18] the target is human IgM (Novus, NBP1-97056) (human, UniProt P01871-1 1-453). Put plainly: ELISA, plate-coated immunoglobulin.
human IgM (Novus, NBP1-97056), sequence (P01871 other isoform, or with tags, fused parts or gaps): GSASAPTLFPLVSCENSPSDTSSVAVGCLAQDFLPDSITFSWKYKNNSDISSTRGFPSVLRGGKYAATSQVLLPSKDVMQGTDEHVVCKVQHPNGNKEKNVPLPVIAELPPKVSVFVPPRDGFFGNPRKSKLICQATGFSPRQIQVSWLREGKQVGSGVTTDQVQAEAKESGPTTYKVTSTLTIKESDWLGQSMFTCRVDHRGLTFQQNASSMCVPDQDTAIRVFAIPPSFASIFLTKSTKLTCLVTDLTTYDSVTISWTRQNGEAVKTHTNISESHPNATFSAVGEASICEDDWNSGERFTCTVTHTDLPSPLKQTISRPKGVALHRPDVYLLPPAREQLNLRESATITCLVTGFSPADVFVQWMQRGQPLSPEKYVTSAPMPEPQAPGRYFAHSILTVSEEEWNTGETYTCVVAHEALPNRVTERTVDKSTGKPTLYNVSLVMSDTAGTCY
Test [19] has as its target T1, human IgE. Put plainly: SPR (Biacore T200, 37 C), IgE low density (~14 RU) on protein L, 1:1 fit. Here is the method: as §4
(§5) For this study Flow Cell (FC) 1 was used as the reference for FC2, FC3 and FC4. Protein L (15 mg/ml stock concentration) was diluted (1:50 dilution, 0.3 mg/ml diluted concentration) in 10 mM sodium acetate buffer at pH 4.5 and immobilized onto all FCs to a level of ˜14000 RU, using the standard amine coupling chemistry. HBS-P (10 mM Hepes, pH 7.4, 150 mM NaCl, 0.05% v/v surfactant P20) was used as the immobilization running buffer. […] HBS-P was used as the capture running buffer. Overnight kinetics were performed for all analytes in the presence of HBS-P. The flow rate of all analyte solutions was maintained at 50 μL/min. The contact and dissociation times used were 120 seconds and 600 seconds, respectively. Glycine pH 1.5 was injected for 20 seconds for surface regeneration. This regeneration condition takes away all captured ligand. Therefore, fresh ligand solution was captured in the beginning of each injection cycle. Injected analyte concentrations are from 80 nM to 0.01953 nM (four-fold dilutions). All analytes were injected in duplicate.

In test [20] the target is T1, human IgE. Kind of test: SPR (Biacore T200, 37 C), IgE high density (~1400 RU) on protein L, 1:1 fit. The procedure: as §4, §5
The target in test [21] is T1, human IgE. Kind of test: SPR (Biacore T200, 37 C), IgE medium density (~114 RU) on protein L, 1:1 fit. The procedure: as §4, §5
Test [22] deals with T1, human IgE. Put plainly: flow cytometry, blocks binding of 5 nM IgE to FCER1A on human mast cells.

Where two headings read alike, the source gives them in different places.

T1 sequence (P01854 other isoform, or with tags, fused parts or gaps limits assumed, form in doubt): as the sequence (P01854 other isoform, or with tags, fused parts or gaps, chain 1 of 2) above
human IgE pre-complexed to FCER1A on the surface of human mast cells, sequence (P01854 other isoform, or with tags, fused parts or gaps): as the sequence (P01854 other isoform, or with tags, fused parts or gaps, chain 1 of 2) above
recombinant human anti-hapten dinitrophenol (DNP) IgE (rhIgE), sequence (P01854 other isoform, or with tags, fused parts or gaps): as the sequence (P01854 other isoform, or with tags, fused parts or gaps, chain 1 of 2) above

B1: cx10710, comprising IgG1 SELF Fc (antibody, V domains shown)
VH: QVQLQESGPGLVKPSETLSLTCAVSGYSITSGYSWNWIRQPPGKKLEWIGSITYDGSSNYNPSLKSRVTISRDTSKNQFSLKLSSVTAADTAVYYCARGSHYFGHWHFAVWGAGTLVTVSS
VL: DIQLTQSPSSLSASVGDRVTITCRASQSVDYDGDSYMNWYQQKPGQPPKLLIYAASYLGSEIPARFSGSGSGTDFTLTISSLQPEDFATYYCQQSHEDPYTFGAGTKLEIKR
notes: Conventional full length anti-IgE antibody with IgG1 SELF Fc; also called conventional antibody comparator; 710 (a derivative of Omalizumab); copies: 2 + 2
What is called IC50 is the concentration that inhibits the measured activity by half. For the molecule B1, in test [1], the “Activation IC50 (nM), CD63 on mast cells” value was 1.93 nM. Moreover, the “Bmax (OD 650 nm)” value with human IgE [2] turned out to be 0.814 OD 650 nm; with human IgE [3] it was 0.946 OD 650 nm. Further, the Bmax with human IgE [4] is 0.95 OD 650; with human IgE [5], 1.2 OD 650; in test [9], 15000 Mean APC-A. The Kd with human IgE [4] was determined as 0.0585 nM; with human IgE [5] it was 0.123 nM; in test [9], 6.17 nM; in the test with human IgE [10] it was 0.102 nM; with human IgE [11], 0.127 nM; in test [12], 0.288 nM. Besides, the binding result is “no binding (tested: 250 nM)” in [6], “no binding (tested: titrated from 1000 nM)” in test [7] and “no binding (tested: 200 nM)” in test [8]. Moreover, the IC50 in the test with human IgE [13] is about 2.1 nM; in the test with human IgE [14], 5.59 nM; in the test with human IgE [15], 2.71 nM; with human IgE [16], about 3.2 nM; with human IgE [17], 0.604 nM.

B2: hzB10v40-IgG1 DSELF Fc region (cx13032) (Fc fusion)
chain: EVQLLESGGGEVQPGGSLRLSCVASGLTFSSYNMGWLRQAPGKEREFVGLSGSSSTSTYYAESVKGRFTISRDNAKNTVYLQMTSLRAEDTAVYYCAARRLLSTYWSDRSWDFWGQGTLVTVEPGGGGDKTHTCPPCPAPELLDGPSVFLFPPKPKDTLMISRTPEVTCVVVDVEHEDPEVKFNWYVDGVEVHNAKTKPREEQYNSTYRVVSVLTVLHQDWLNGKEYKCKVSNKAFPAPIEKTISKAKGQPREPQVYTLPPSREEMTKNQVSLTCLVKGFYPSDIAVEWESNGQPENNYKTTPPVLDSDGSFFLYSKLTVDKSRWQQGNVFSCSVMHEALHNHYTQKSLSLSPGK
notes: hzB10v40 VHH + GGGG linker + IgG1 DSELF Fc; described as bivalent; also called hzB10v40-DSELF; hzB10v40-IgG DSELF Fc
Broadly, the koff is the first-order rate constant of dissociation. The kon is a measure of how fast the partners come together. As for B2, the “Activation IC50 (nM), CD63 on mast cells” value in test [1] is 3.09 nM. Besides, in the test with human IgE [3], the “Bmax (OD 650 nm)” value was found to be 0.873 OD 650 nm. The binding result in test [18] is “no binding”; in test [7] it was “no binding (tested: titrated from 1000 nM)”. In the test with human IgE [4], this molecule registered a Bmax of 0.808 OD 650. Also, the Kd in the test with human IgE [4] came to 0.11 nM; with human IgE [11], 0.266 nM; with human IgE [19] it was 0.6 nM; with human IgE [20], 1.1 nM; with human IgE [21], 0.6 nM. Besides, the values for the IC50 with human IgE [14], with human IgE [16] and with human IgE [22] were 7.63 nM, about 3.4 nM and 0.61 nM, respectively. The koff with human IgE [19] is 0.000449 s⁻¹; with human IgE [20], 0.000258 s⁻¹; in the test with human IgE [21], 0.000207 s⁻¹. Also, the values for the kon with human IgE [19], with human IgE [20] and with human IgE [21] were 422000 M⁻¹ s⁻¹, 242000 M⁻¹ s⁻¹ and 373000 M⁻¹ s⁻¹, respectively.
